According to patent publication US20200239579A1 (Genmab, published 2020):

B1: IgG1-338-FEAR (antibody, V domains shown)
VH: EVQVVESGGGLVQPGGSLRLSCAASGFTFSRFWMSWVRQAPGKGLEWVANIKQDGGEKYYVDSVKGRFTISRDNAKNSLYLQMNSLRGEDTAVYYCARDDNWNGHFDYWGQGTLVTVSS
VL: DIQMTQSPSTLSASVGDRVTITCRASQSISSWLAWYQQKPGKAPNLLIYKASSLESGVPSRFSGSGSGTEFTLTISSLQPDDFATYYCQQYYGSYITFGQGTRLEIKR
B2: IgG1-511-LC33S-FEAR (antibody, V domains shown)
VH: QVQLVQSGSELKKPGASVMVSCKASGYTFTSYVMNWVRQAPGQGLEWMGWINSYTGNPTSAQGFTGRFVFSFDTSVNTAYLQISSLKAEDTAVYYCARGYCTSTSCYLDYWGQGTLVTVSS
VL: SYELTQPPSVSVSPGHTARITCSGDALPKKYASWFQQKSGQAPVLVIYEDSKRPSGIPERFSGSTSGTMATLTISGAQVEDETDYYCYSADTSGTHRVFGGGTKLTVLG
B3: IgG1-547-FEAR (antibody, V domains shown)
VH: EVQLLEPGGGLVQPGGSLRLSCEASGSTFSTYAMSWVRQAPGKGLEWVSGFSGSGGFTFYADSVRGRFTISRDSSKNTLFLQMSSLRAEDTAVYYCAIPARGYNYGSFQHWGQGTLVTVSS
VL: SYVLTQPPSVSVAPGQTARITCGGNNIGSKSVHWYQQKPGQAPVLVVYDDNDRPSGLPERFSGSNSGNTATLTISRVEAGDEADYYCQVWDSSSDHVVFGGGTKLTVLG

Assays:
[1] = target: T1, human PD-L1 (full length, on cells) (human, UniProt Q9NZQ7 19-290); experiment: flow cytometry on PC3 cells, PE anti-human IgG secondary, MFI (PE)
T1 construct: The entry holds the signal peptide; also called CD274; B7H1
Method: (§1) Cells (3-5×10⁴ cells/well) were incubated in polystyrene 96-well round-bottom plates (Greiner bio-one, cat. no. 650101) with serial dilutions of antibodies (range 0.0001 to 10 μg/mL in 5-fold dilution steps) in 50 μL PBS/0.1% BSA/0.02% azide (staining buffer) at 4° C. for 30 min.
(§2) After washing twice in staining buffer, cells were incubated in 50 μL secondary antibody at 4° C. for 30 min. As a secondary antibody, R-Phycoerythrin (PE)-conjugated goat-anti-human IgG F(ab′)₂ (Cat. no. 109-116-098, Jackson ImmunoResearch Laboratories, Inc., West Grove, Pa.) diluted 1:500 in staining buffer, was used for all experiments. Next, cells were washed twice in staining buffer, re-suspended in 20 μL staining buffer and analyzed on an iQue screener (Intellicyt Corporation, USA). Binding curves were analyzed using non-linear regression (sigmoidal dose-response with variable slope) using GraphPad Prism V75.04 software (GraphPad Software, San Diego, Calif., USA).

[2] = target: T1, human PD-L1 (full length, on cells); experiment: flow cytometry on SK-MES-1 cells, PE anti-human IgG secondary, MFI (PE)
Method: as §1, §2

[3] = target: T1, human PD-L1 (full length, on cells); experiment: flow cytometry on MDA-MB-231 cells, PE anti-human IgG secondary, MFI (PE)
Method: as §1, §2

[4] = target: T2, PDLoneECDHisCtag (human, UniProt Q9NZQ7 19-238); experiment: BLI (Octet HTX), average of 3 experiments; antibody on AHC sensor, PDLoneECD-HisCtag as analyte
T2 construct: Expressed in HEK-293F cells; theoretical molecular weight 29 kDa; also called recombinant human PD-L1 ECD; human PD-L1 (BLI); not shown: C-terminal His-tag; C-tag
Method: In a first set of experiments, affinities for recombinant-expressed human PD-L1 protein were determined using Bio-layer interferometry (BLI) on an Octet HTX instrument (ForteBio). Anti-Human IgG Fc Capture (AHC) biosensors (ForteBio) were loaded for 900 s with antibodies (1 μg/ml). […] The experiment was carried out while shaking at 1000 rpm at 30° C. Data was analyzed with Data Analysis Software v9.0.0.12 (ForteBio) using the 1:1 model and a global full fit with 1000 s association time and 200 or 1000 s dissociation time. Data traces were corrected by subtraction of a buffer reference, the Y-axis was aligned to the last 10 s of the baseline, and interstep correction as well as Savitzky-Golay filtering was applied. Data traces with a response <0.05 nm were excluded from analysis. As default, the fit using 1000 s dissociation time was used.

[5] = target: T2, PDLoneECDHisCtag; experiment: BLI cross-block, second antibody on PDLoneECDHisCtag held by immobilised 338; bold = blocking
Method: (§3) Antibody cross-block testing was performed using biolayer interferometry (BLI) on an Octet HTX instrument (ForteBio). Antibodies (20 μg/ml in 10 mM sodium acetate buffer pH 6.0 (ForteBio)) were immobilized on Amine-Reactive 2nd Generation (AR2G) biosensors (ForteBio) according to the instructions of the manufacturer. After a baseline (50 s) in Sample Diluent (ForteBio), biosensors containing immobilized antibodies were loaded for 500 s with PDLoneECDHisCtag (100 nM or 2.7 μg/ml), after which the association response of a second antibody (10 μg/ml) was followed for 500 s. Biosensors were regenerated by using 3 times 5 s alternating exposures to 10 mM glycine pH 2.5 and Sample Diluent. The experiment was repeated with a new set of second antibodies starting from the baseline step. Each biosensor was used 6 times. The experiment was performed at 30° C. using a shaker speed of 1000 rpm. Data was analyzed using Data Analysis Software v9.0.0.12 (ForteBio). The Y-axis was aligned to the association step and Savitzky-Golay filtering was applied. The average buffer response was subtracted from the association response of the second antibody in order to correct for the dissociation of PDLoneECDHisCtag from the immobilized antibody. The corrected association responses were plotted in a matrix format.

[6] = target: T2, PDLoneECDHisCtag; experiment: BLI cross-block, second antibody on PDLoneECDHisCtag held by immobilised 321; bold = blocking
Method: as §3

[7] = target: T3, cynomolgus monkey PD-L1 (full length, on CHO cells) (cynomolgus monkey (Macaca fascicularis), UniProt G7PSE7 19-290); experiment: flow cytometry on CHO cells transfected with cynomolgus PD-L1, PE anti-human IgG secondary, MFI (PE)
T3 construct: whole, on cells; also called PDL1 Mf; cynomolgus PD-L1
Method: as §1, §2
Binding to CHO cells expressing cynomolgus PD-L1 was determined by flow cytometry using a method as described above.

[8] = target: T2, PDLoneECDHisCtag; experiment: BLI cross-block, second antibody on PDLoneECDHisCtag held by immobilised MEDI; bold = blocking
Method: as §3

[9] = target: T2, PDLoneECDHisCtag; experiment: BLI cross-block, second antibody on PDLoneECDHisCtag held by immobilised 516; plain = non-blocking
Method: as §3

[10] = target: T4, cynomolgus PD-L1/137-H1 protein (Acro Biosystems, cat. No. PD1-052H4-100) (cynomolgus, UniProt G7PSE7 19-239); experiment: BLI (Octet HTX), average of 3 experiments; antibody on AHC sensor, cynomolgus PD-L1 protein (Acro Biosystems) as analyte
T4 construct: also called cynomolgus PD-L1 (BLI)
T4 sequence (G7PSE7 entry or part of it): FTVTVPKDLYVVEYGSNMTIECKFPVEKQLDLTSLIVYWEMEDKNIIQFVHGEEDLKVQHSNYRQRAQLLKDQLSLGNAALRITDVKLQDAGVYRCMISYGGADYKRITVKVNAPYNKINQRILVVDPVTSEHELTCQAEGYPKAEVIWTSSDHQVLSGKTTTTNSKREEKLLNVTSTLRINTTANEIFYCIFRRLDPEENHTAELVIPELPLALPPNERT

T2 sequence (Q9NZQ7 19-238, form in doubt): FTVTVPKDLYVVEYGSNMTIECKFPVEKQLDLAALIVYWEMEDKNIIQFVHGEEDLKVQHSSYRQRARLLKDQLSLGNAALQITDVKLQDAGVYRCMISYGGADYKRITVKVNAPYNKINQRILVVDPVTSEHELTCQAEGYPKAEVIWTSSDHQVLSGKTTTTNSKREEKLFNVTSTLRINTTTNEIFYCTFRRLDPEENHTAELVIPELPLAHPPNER
T3 sequence (G7PSE7 entry or part of it): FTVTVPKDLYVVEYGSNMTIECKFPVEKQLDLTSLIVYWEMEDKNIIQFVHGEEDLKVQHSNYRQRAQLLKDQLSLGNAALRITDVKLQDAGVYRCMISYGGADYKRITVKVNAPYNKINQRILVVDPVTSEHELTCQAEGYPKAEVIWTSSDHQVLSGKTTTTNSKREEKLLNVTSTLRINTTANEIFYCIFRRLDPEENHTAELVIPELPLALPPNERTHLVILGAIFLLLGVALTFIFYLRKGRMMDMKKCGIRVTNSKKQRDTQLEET
T1 sequence (Q9NZQ7 19-290 limits assumed): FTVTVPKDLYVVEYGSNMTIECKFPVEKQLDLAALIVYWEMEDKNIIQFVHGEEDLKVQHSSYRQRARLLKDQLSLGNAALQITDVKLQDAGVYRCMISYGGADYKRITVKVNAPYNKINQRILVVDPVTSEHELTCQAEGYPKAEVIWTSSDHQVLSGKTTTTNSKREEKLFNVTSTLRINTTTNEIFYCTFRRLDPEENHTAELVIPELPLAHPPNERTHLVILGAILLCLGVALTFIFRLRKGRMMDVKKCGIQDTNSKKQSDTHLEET

| Binder | EC50 (read off the curve) [1] [µg/mL] | EC50 (read off the curve) [2] [µg/mL] | EC50 (read off the curve) [3] [µg/mL] | Kd [4] [nM] | koff [4] [s⁻¹] | kon [4] [M⁻¹ s⁻¹] | association response of the second antibody [5] [nm] | association response of the second antibody [6] [nm] | EC50 (read off the curve) [7] [µg/mL] | association response of the second antibody [8] [nm] | association response of the second antibody [9] [nm] | Kd [10] [nM] | koff [10] [s⁻¹] | kon [10] [M⁻¹ s⁻¹] |
| --- | --- | --- | --- | --- | --- | --- | --- | --- | --- | --- | --- | --- | --- | --- |
| B1 | ~0.03 | ~0.1 | ~0.06 | 0.31 | 0.00025 | 800000 | 0 | 0 | ~0.01 | 0 | 1.1 | 0.73 | 0.00028 | 390000 |
| B2 | ~0.01 | ~0.2 | ~0.04 | 5.1 | 0.0048 | 960000 | 0 | 0 | ~0.02 | 0 | 1.1 | 12 | 0.0052 | 450000 |
| B3 | ~0.04 | ~0.2 | ~0.06 | 0.12 | 0.00011 | 970000 | 0 | 0 | ~0.02 | 0 | 0.8 | 0.27 | 0.00012 | 440000 |
